Data reported in patent publication US20250326843A1 (published 2025).

T1: human B7-H4 (human, UniProt Q7Z7D3 25-282)
T1 chain: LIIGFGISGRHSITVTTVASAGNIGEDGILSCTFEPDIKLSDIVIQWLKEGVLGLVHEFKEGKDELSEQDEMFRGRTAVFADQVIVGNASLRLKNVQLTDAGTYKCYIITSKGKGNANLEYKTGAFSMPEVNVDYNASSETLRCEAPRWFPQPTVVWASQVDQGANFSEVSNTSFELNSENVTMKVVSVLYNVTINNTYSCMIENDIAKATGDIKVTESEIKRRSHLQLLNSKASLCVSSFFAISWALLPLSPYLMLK

T2: murine B7-H4 (murine, UniProt Q7TSP5 25-257)
T2 chain: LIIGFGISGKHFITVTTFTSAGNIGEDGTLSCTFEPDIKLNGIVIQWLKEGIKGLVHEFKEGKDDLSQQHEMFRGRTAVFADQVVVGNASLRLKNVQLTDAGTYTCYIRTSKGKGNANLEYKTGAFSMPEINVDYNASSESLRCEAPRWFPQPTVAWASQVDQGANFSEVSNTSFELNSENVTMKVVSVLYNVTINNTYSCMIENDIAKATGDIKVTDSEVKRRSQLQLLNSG

T3: cynomolgus monkey B7-H4 (cynomolgus monkey, UniProt A0A2K5U6P5 25-282)
T3 chain: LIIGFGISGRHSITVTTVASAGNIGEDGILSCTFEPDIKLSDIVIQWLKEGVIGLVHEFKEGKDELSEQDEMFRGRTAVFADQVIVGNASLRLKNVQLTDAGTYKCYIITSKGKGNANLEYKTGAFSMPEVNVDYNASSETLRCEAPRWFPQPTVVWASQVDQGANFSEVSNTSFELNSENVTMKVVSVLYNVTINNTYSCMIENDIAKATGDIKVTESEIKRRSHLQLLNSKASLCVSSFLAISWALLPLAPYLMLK

B1: B7-H4×CD3 bispecific antibody PR003733 (bispecific antibody)
light: QAVVTQEPSLTVSPGGTVTLTCRSSTGAVTTSNYANWVQQKPGQAPRGLIGGTNKRAPWTPARFSGSLLGDKAALTLLGAQPEDEAEYFCALWYSNLWVFGGGTKLTVLGQPKAAPSVTLFPPSSEELQANKATLVCLISDFYPGAVTVAWKADSSPVKAGVETTTPSKQSNNKYAASSYLSLTPEQWKSHRSYSCQVTHEGSTVEKTVAPTECS
heavy: not shown
chain: EIVMTQSPASLSVSPGERATLSCRASQSVSSNLAWYQQKPGQAPRLLIYGASTRATGIPARVSGGGSGTEFTLTISSLQSEDFAVYYCQQYKNWPFTFGPGTKLEIKGGGGSGGGGSGGGGSGGGGSQVQLVQSGAEVKKPGSSMRVSCKASEDTFSSYAISWVRQAPGQGLEWMGGTAPIFGTTNYAQKFQGRVTITADKSTSTAYMELSSLRSEDTAVYYCARGGPYFDYWGQGTLVTVSSASEPKSSDKTHTCPPCPAPEAAGGPSVFLFPPKPKDTLMISRTPEVTCVVVDVSHEDPEVKFNWYVDGVEVHNAKTKPREEQYNSTYRVVSVLTVLHQDWLNGKEYKCKVSNKALPAPIEKTISKAKGQPREPQVCTLPPSREEMTKNQVSLSCAVKGFYPSDIAVEWESNGQPENNYKTTPPVLDSDGSFFLVSKLTVDKSRWQQGNVFSCSVMHEALHNHYTQKSLSLSPGK
B2: B7-H4×CD3 bispecific antibody PR003899 (bispecific antibody)
light: QAVVTQEPSLTVSPGGTVTLTCRSSTGAVTTSNYANWVQQKPGQAPRGLIGGTNKRAPWTPARFSGSLLGDKAALTLLGAQPEDEAEYFCALWYSNLWVFGGGTKLTVLGQPKAAPSVTLFPPSSEELQANKATLVCLISDFYPGAVTVAWKADSSPVKAGVETTTPSKQSNNKYAASSYLSLTPEQWKSHRSYSCQVTHEGSTVEKTVAPTECS
heavy: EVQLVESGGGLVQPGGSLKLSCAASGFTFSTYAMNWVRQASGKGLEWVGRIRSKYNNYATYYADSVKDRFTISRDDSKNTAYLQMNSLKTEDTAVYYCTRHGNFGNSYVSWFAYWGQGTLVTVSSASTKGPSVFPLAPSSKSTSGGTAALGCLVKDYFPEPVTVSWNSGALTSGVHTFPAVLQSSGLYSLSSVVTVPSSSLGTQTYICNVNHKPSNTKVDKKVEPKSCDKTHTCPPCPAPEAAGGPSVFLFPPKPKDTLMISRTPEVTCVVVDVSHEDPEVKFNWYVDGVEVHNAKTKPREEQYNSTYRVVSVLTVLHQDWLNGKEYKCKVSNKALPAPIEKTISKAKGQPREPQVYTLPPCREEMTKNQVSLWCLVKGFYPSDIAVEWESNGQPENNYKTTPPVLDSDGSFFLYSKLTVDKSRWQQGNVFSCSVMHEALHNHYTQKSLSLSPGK
chain: EIVMTQSPASLSVSPGERATLSCRASQSVSSNLAWYQQKPGQAPRLLIYGASTRATGIPARVSGGGSGTEFTLTISSLQSEDFAVYYCQQYKNWPFTFGPGTKLEIKGGGGSGGGGSGGGGSGGGGSQVQLVQSGAEVKKPGSSMRVSCKASEDTFSSYAISWVRQAPGQGLEWMGGTAPIFGTTNYAQKFQGRVTITADKSTSTAYMELSSLRSEDTAVYYCARGGPYFDYWGQGTLVTVSSASEPKSSDKTHTCPPCPAPEAAGGPSVFLFPPKPKDTLMISRTPEVTCVVVDVSHEDPEVKFNWYVDGVEVHNAKTKPREEQYNSTYRVVSVLTVLHQDWLNGKEYKCKVSNKALPAPIEKTISKAKGQPREPQVCTLPPSREEMTKNQVSLSCAVKGFYPSDIAVEWESNGQPENNYKTTPPVLDSDGSFFLVSKLTVDKSRWQQGNVFSCSVMHEALHNHYTQKSLSLSPGK
B3: Urelumab (antibody, V domains shown)
VH: QVQLQQWGAGLLKPSETLSLTCAVYGGSFSGYYWSWIRQSPEKGLEWIGEINHGGYVTYNPSLESRVTISVDTSKNQFSLKLSSVTAADTAVYYCARDYGPGNYDWYFDLWGRGTLVTVSS
VL: EIVLTQSPATLSLSPGERATLSCRASQSVSSYLAWYQQKPGQAPRLLIYDASNRATGIPARFSGSGSGTDFTLTISSLEPEDFAVYYCQQRSNWPPALTFGGGTKVEIK

How the values were obtained:
human B7-H4 = molecular target: T1, human B7-H4; test: flow cytometry; CHO-K1/hu B7H4 cells
CD3 on human T cells = CD3 on human T cells (human, UniProt P07766 23-207); test: flow cytometry; T cells
Chain of CD3 on human T cells (P07766 23-207): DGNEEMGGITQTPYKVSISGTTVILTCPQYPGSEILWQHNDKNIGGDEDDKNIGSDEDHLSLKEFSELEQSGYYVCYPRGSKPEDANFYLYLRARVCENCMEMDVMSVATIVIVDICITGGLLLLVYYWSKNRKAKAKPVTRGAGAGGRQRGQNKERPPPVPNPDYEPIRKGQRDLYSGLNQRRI

murine B7-H4 = molecular target: T2, murine B7-H4; test: flow cytometry; CHO-K1/m B7H4 cells
cynomolgus monkey B7-H4 = molecular target: T3, cynomolgus monkey B7-H4; test: flow cytometry; CHO-K1/cyno B7H4 cells
human 4-1BB = human 4-1BB (human, UniProt Q07011 24-255); test: flow cytometry
Chain of human 4-1BB (Q07011 24-255): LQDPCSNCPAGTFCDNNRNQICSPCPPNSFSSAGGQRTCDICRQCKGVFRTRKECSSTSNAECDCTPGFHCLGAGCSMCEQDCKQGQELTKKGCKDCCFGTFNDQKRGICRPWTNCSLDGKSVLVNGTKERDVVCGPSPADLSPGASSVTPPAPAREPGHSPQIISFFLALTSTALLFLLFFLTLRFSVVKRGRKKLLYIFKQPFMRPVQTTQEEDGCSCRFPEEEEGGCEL

Binder | EC50 (human B7-H4) [nM] | EC50 (CD3 on human T cells) [nM] | EC50 (murine B7-H4) [nM] | EC50 (cynomolgus monkey B7-H4) [nM] | EC50 (human 4-1BB) [nM]
B1 | 7.7 | ~59.3 | ~250 | 5.83 | –
B2 | 6.06 | ~201 | ~62.5 | 4.96 | –
B3 | – | – | – | – | 1.63
